Read-outs that look alike come from different tables or passages of the source.
Experiments:
[1] = molecular target: human CD40 on the cell surface (Raji cells, HEK-Blue CD40L cells, primary human B cells and DCs) (human) (UniProt P25942); experiment: flow cytometry (FACS) binding to Raji cells
[2] = molecular target: human CD40 on the cell surface (Raji cells, HEK-Blue CD40L cells, primary human B cells and DCs) (human) (UniProt P25942); experiment: cell-based or functional assay
[3] = molecular target: his-tagged human CD40 recombinant protein (h-CD40-his, Acrobiosystems Cat. #CD0-H5228) (human) (UniProt P25942); experiment: SPR (Biacore), antibody captured on anti-human Fc chip, His-tagged CD40 as analyte, 1:1 model
Sequence of his-tagged human CD40 recombinant protein (h-CD40-his, Acrobiosystems Cat. #CD0-H5228) (human) (P25942 21-193 limits assumed): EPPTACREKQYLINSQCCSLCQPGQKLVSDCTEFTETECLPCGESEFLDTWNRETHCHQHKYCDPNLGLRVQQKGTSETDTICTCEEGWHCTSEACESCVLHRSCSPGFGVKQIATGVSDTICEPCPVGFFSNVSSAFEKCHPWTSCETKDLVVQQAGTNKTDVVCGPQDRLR

[4] = molecular target: human CD40 on the cell surface (Raji cells, HEK-Blue CD40L cells, primary human B cells and DCs) (human) (UniProt P25942); experiment: flow cytometry (FACS) binding to Raji cells; remark: listed apart in the source

Sequence of human CD40 on the cell surface (Raji cells, HEK-Blue CD40L cells, primary human B cells and DCs) (human) (P25942 21-277): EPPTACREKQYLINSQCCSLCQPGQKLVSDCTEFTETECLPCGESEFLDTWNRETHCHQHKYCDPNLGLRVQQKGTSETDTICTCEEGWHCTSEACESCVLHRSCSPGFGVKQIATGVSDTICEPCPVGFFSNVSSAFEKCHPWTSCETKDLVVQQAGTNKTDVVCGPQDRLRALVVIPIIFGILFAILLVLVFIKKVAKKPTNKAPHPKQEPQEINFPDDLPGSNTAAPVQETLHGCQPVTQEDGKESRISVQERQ

EC50 [1]: 1010 pM
B cell activation assay, CD19+CD69+ %, IC50 [2]: 140 pM
B cell activation assay, CD19+CD69+ %, maximum inhibition rate [2]: 95%
B cell activation assay, CD19+CD69+ MFI, IC50 [2]: 70 pM
B cell activation assay, CD19+CD69+ MFI, maximum inhibition rate [2]: 110%
IC50 for the inhibition of CD40 reporter gene cell activity (Experiment 1) [2]: 360 pM
IC50 for the inhibition of CD40 reporter gene cell activity (Experiment 2) [2]: 350 pM
IC50 in DC cell activation assay system, CD80 MFI [2]: 1190 pM
IC50 in DC cell activation assay system, CD86 MFI [2]: 1930 pM
IC50 in DC cell activation assay system, IL-12/23 p40 [2]: 680 pM
IC50 in DC cell activation assay system, TNFα [2]: 350 pM
Reporter gene cell activity IC50 (SEAP, HEK-Blue CD40L cells stimulated with CD40L) [2]: 272 pM
Kd [3]: 205 pM
koff [3]: 0.000141 s⁻¹
kon [3]: 688000 M⁻¹ s⁻¹
EC50 [4]: 2410 pM
Substance: CFZ533 (iscalimab), anti-CD40 antagonistic antibody, positive control
